16 molecules from patent US20160362487A1 (Regeneron, published 2016) can be followed below.

In assay [1] the target is T1, human IL-33 (R&D Systems, #3625-IL-010/CF) (human, UniProt O95760 112-270).
T1 sequence (looked up): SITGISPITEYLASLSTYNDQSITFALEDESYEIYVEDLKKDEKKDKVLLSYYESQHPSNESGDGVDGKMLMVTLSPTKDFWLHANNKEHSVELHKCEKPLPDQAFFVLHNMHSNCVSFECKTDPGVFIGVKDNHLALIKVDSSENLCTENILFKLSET
The assay can be described thus: cell-based or functional assay.

Assay [2] concerns the target T2, cynomolgus monkey IL-33 expressed with a C-terminal hexahistidine tag (cynomolgus monkey).
T2 construct: also called MfIL-33-6His; Mf-IL-33-6His
T2 chain: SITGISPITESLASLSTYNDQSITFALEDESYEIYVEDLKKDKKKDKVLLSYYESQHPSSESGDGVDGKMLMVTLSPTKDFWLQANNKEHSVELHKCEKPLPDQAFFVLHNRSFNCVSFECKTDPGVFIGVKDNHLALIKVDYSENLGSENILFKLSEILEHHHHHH
The experiment in a line: BLI; captured MfIL-33-6His, mAb-1 step with Isotype control. As to the method:
Binding competition between a panel of different anti-IL-33 monoclonal antibodies was determined using a real time, label-free bio-layer interferometry assay on an Octet® HTX biosensor (ForteBio, A Division of Pall Life Sciences). The experiment was performed at 25° C. using a buffer of 0.01M HEPES pH7.4, 0.15M NaCl, 3 mM EDTA, 0.05% v/v Surfactant Tween-20, and 0.1 mg/ml BSA (HBS-ET kinetics buffer) with the plate shaking at a speed of 1000 rpm. […] The antigen-captured biosensors were then saturated with a first anti-IL-33 monoclonal antibody (subsequently referred to as mAb-1) by immersion into wells containing 50 μg/mL solution of mAb-1 for 5 minutes. The biosensors were then dipped into wells containing a 50 μg/mL solution of a second anti-IL-33 monoclonal antibody (subsequently referred to as mAb-2) for 4 minutes. The biosensors were washed in HBS-ET kinetics buffer in between every step of the experiment. The real-time binding response was monitored during the experiment, and the maximum binding response for each binding step was recorded. The response of mAb-2 binding to MfIL-33-6His pre-complexed with mAb-1 was measured, and competitive/non-competitive behavior of different anti-IL-33 monoclonal antibodies with respect to each other was determined.
For orientation: BLI is a label-free optical method that tracks binding on a fibre tip over time.

For assay [3], the target named is T1, human IL-33 (R&D Systems, …). The assay can be described thus: cell-based or functional assay. This is another data set of the same source.

Residue numbers refer to the chain shown, from its start. In names and notes the source's numbering stands.

B1: H4H9629P (antibody, human IgG4, V domains shown)
VH: EVQLVESGGGLVQPGGSLRLSCAASGFTFRSFAMSWVRQAPGKGLELVSDLRTSGGSTYYADSVKGRLTISRDNSKNTLYLQMNSLRAEDTAVYYCAKSHYSTSWFGGFDYWGQGTLVTVSS
VL: DIQMTQSPSSVSASVGDRVTITCRASQGFSSWLAWYQQKPGKAPKLLIYAASSLQSGVPSRFSGSGSGTDFTLTITNLQPEDFATYYCQQANSFPLTFGGGTKVEIK
notes: Human IgG4 Fc (H4H)
Take B1: in assay [1], the “IC50, blocking of IFN-γ release from human PBMC induced by 260 pM hIL-33, donor #603486” value (shortened to “IC50, blocking of IFN-γ release … donor #603486”) turned out to be 8.15e-10 M and the “IC50, blocking of IFN-γ release from human PBMC induced by 260 pM hIL-33, donor #603487” value (“IC50, blocking of IFN-γ release … donor #603487” below) stood at 5.21e-09 M. In addition, the “mAb-2 Binding to the Pre-complex of mAb-1 & MfIL-33-6xHis” value (from here on “mAb-2 Binding to the Pre-complex”) in assay [2] amounted to 0.26 nm.

B2: H4H9660P (antibody, human IgG4, V domains shown)
VH: EVQLVESGGGLVQPGGSLRLSCAASGITLSSYGMSWVRQAPGKGLEWVASIFGSGGGPYYADSVKGRFTMSRDNSKNTLYLQMNSLRAEDTAVYYCAKDRYSGSYYGGFDYWGRGTLVTVSS
VL: B1 VL with F29I, S30T, K45T, S56T, T76S, N77S, D82H, L96P
notes: Human IgG4 Fc (H4H)
As to B2, in assay [1], the “IC50, blocking of IFN-γ release … donor #603486” value was 6.67e-10 M and the “IC50, blocking of IFN-γ release … donor #603487” value stood at 2.91e-09 M. Moreover, in assay [2], the “mAb-2 Binding to the Pre-complex” value stood at 0.26 nm.

B3: H4H9663P (antibody, human IgG4, V domains shown)
VH: QVQLVQSGAEVKKPGASVKVSCKASGYTFTGHYMYWMRQAPGQGLEWMGWINPNSGGTNYAQKFQDRVTMTRDTSISTAYMELSRLRSDDTAVYYCARGRYGSSWYGGFEYWGQGTLVTVSS
VL: B1 VL with F29I, S30T, K45N, S52A, T76S, N77S, A84T, N92Y, F94L
notes: Human IgG4 Fc (H4H)
Turning to B3, in assay [1], the “IC50, blocking of IFN-γ release … donor #603486” value is 1.24e-08 M and the “IC50, blocking of IFN-γ release … donor #603487” value turned out to be 2.2e-08 M. Also, the “mAb-2 Binding to the Pre-complex” value in assay [2] was 0.23 nm.

B4: H4H9672P (antibody, human IgG4, V domains shown)
VH: EVQLVESGGGLVQPGGSLRLSCAASGFTLRSYVMYWVRQGPGKGLEGVSGISGSSGGTYYTDSVKGRFTISRDNSKNTLFLQMNSLRAEDTAVYFCARSVYSTTWYGGFQHWGQGTLVTVSS
VL: B1 VL with A13V, G28V, F29I, Q38L, T76S, N77G, T85V, A91T
notes: Human IgG4 Fc (H4H)
With B4, the “mAb-2 Binding to the Pre-complex” value in assay [2] is 0.25 nm.

B5: H4H9659P (antibody, human IgG4, V domains shown)
VH: QVQLVQSGAEVKKPGASVKVSCKASGYTFNSYGISWVRQAPGQGLEWMGWISSHNGNSHYVQKFQGRVSMTTDTSTSTAYMELRSLRSDDTAVYYCARHSYTTSWYGGFDYWGQGTLVTVSS
VL: B1 VL with K45Q, T69S, T76S, N77S
notes: Human IgG4 Fc (H4H)
On to B5, for which, in assay [3], the “IC50, blocking of human basophil degranulation induced by 100 pM human IL-33, donor 655687” value was 5.79e-10 M and the “IC50, blocking of human basophil degranulation induced by 100 pM human IL-33, donor 655688” value worked out at 4.47e-10 M. Moreover, in assay [1], the “IC50, blocking of IFN-γ release … donor #603486” value came out at 1.25e-09 M and the “IC50, blocking of IFN-γ release … donor #603487” value was 2.71e-09 M. For the same molecule, the “mAb-2 Binding to the Pre-complex” value in assay [2] came out at 0.25 nm.

B6: H4H9667P (antibody, human IgG4, V domains shown)
VH: EVQLVESGGGLVQPGGSLRLSCAASGFTFSTYSMHWVRQAPGKGLEYVSTINNNGDTTYYADSVKGRFTISRDNSKNTLYLQLGSLRPEDMAVYYCARQTYTSSWYGGFDSWGQGTLVTVSS
VL: B1 VL with F29I, S30T, S53N, N77S, F94L, L96F, G100P, E105D
notes: Human IgG4 Fc (H4H)
With B6, in assay [1], the “IC50, blocking of IFN-γ release … donor #603486” value turned out to be 8.07e-09 M and the “IC50, blocking of IFN-γ release … donor #603487” value came to 1.88e-08 M. Besides, the “mAb-2 Binding to the Pre-complex” value in assay [2] stood at 0.26 nm.

B7: H4H9671P (antibody, human IgG4, V domains shown)
VH: B4 VH with V33F, Y35T, G40V, G50A, S54I, S99T, T103S, T104S, W105Y
VL: B1 VL with A13V, F29I, A50V, T76S, N77S, A91T
notes: Human IgG4 Fc (H4H)
In the case of B7, in assay [1], the “IC50, blocking of IFN-γ release … donor #603486” value is 2.97e-09 M and the “IC50, blocking of IFN-γ release … donor #603487” value came out at 8.62e-09 M. Further, the “mAb-2 Binding to the Pre-complex” value in assay [2] was found to be 0.26 nm.

B8: H1M9559N (antibody, mouse IgG1, V domains shown)
VH: QVQLVESGGGVVQPGRSLRLSCAASGFTFSSYGMHWVRQAPGKGLEWVAVIWYDGRNKYYTDSVKGRFTISRDNSKNTLYLQMDSLRAEDTAVYYCARERYISSYYGGFDPWGQGALVTVSS
VL: B1 VL with F29I, L46V, T76S, N77S, L96F, G100P, V104L, E105D
notes: Human variable domains, mouse IgG1 Fc (H1M)
With B8, in assay [2], the “mAb-2 Binding to the Pre-complex” value turned out to be 0.21 nm.

B9: H4H9666P (antibody, human IgG4, V domains shown)
VH: QVQLVQSGAEVKKPGASVKVSCKASGYTFTSYGISWVRQAPGQGLEWMGWIRAYNGYTNYAQKFQGRVTMTTDTSTNTAYMELRTLNSDDTAVYYCARDRYSGSFHGNFDYWGQGTLVTVSS
VL: B1 VL with F29I, S30F, L46V, S53N, Q55E, T76S, N77S, F94L
notes: Human IgG4 Fc (H4H)
Regarding B9, the “mAb-2 Binding to the Pre-complex” value in assay [2] came out at 0.28 nm.

B10: H4H9664P (antibody, human IgG4, V domains shown)
VH: QVQLVESGGGVVQPGRSLRLSCAASGFTFSSYGLHWVRQSPGKGLEWVALISYDGSNKYYADSVKGRFTISRDNSKNTLYLQMNSLRPEDTAGYFCAKSLYTTSWYGGFDYWGQGTLVTVSS
VL: B1 VL with F29I, S30R, K45N, T76S, N77S, L96P, G100P, E105D
notes: Human IgG4 Fc (H4H)
Regarding B10, in assay [1], the “IC50, blocking of IFN-γ release … donor #603486” value worked out at 3.98e-09 M and the “IC50, blocking of IFN-γ release … donor #603487” value came to 6.08e-09 M. In addition, in assay [2], the “mAb-2 Binding to the Pre-complex” value amounted to 0.27 nm.

B11: H4H9676P (antibody, human IgG4, V domains shown)
VH: EVQLVESGGGLVQPGGSLRLSCSASGFTFSSYAMNWVRQAPGKGLEWVTAISGSGGGTYYADSVKGRFTISRDNSKNSLFLQLNSLRAEDTAVYYCAKQTYTSSWYGGFDIWGQGTMVTVSS
VL: B1 VL with K39I, S53R, S63R, T76S, N77S
notes: Human IgG4 Fc (H4H)
With B11, in assay [2], the “mAb-2 Binding to the Pre-complex” value worked out at 0.25 nm.

B12: H4H9633P (antibody, human IgG4, V domains shown)
VH: EVQLVESGGGLVQPGGSLRLSCAASGFTFSSYVMSWVRQAPGKGLEWVSSISGNGGSTNYADSVKGRFTISRDNSKNTLFLEMNSLRAEDTAVYYCAKSLGTTTTFLGFDYWGQGTLVTVSS
VL: B1 VL with F29I, D70Y, T76S, N77S
notes: Human IgG4 Fc (H4H)
Consider B12, for which, in assay [2], the “mAb-2 Binding to the Pre-complex” value came to 0.28 nm.

B13: H1M9565N (antibody, mouse IgG1, V domains shown)
VH: QVTLKESGPVLVKPTESLTLTCSVSGFSLSNVRMGVSWIRQSPGKALEWLAHIFSNDEKSYTTSLKTRLTISKDTSRSQVVLTMTDMDPGDTATYYCARIRNLAFNYWGQGTLVTVSS
VL: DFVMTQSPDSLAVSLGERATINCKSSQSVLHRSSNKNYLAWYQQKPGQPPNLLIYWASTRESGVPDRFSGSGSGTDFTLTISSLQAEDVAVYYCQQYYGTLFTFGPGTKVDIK
notes: as for B8
B13: the “mAb-2 Binding to the Pre-complex” value in assay [2] turned out to be 0.34 nm.

B14: H1M9568N (antibody, mouse IgG1, V domains shown)
VH: QVLLVQSGAEVKKPGATVKVSCKASGSTFTGYYMHWVRQAPGQGLEWMGWINPNNGGTNYAQKFQGRVTMTRDTSISTAYMELSRLRSDDTAVYYCARELRYNWKSWGQGTLVTVSS
VL: EIVLTQSPGTLSLSPGERVTLSCRASQSVGRPYLAWYQQIPGQAPRLLIYGASSRATDIPDRFSGNGSGTDFTLTISRLEPEDFAVYYCQQYDNSPYTFGQGTRLEIK
notes: as for B8
Consider B14, for which the “mAb-2 Binding to the Pre-complex” value in assay [2] came out at 0.34 nm.

B15: H4H9640P (antibody, human IgG4, V domains shown)
VH: QVQLQESGPGLVKPSETLSLTCTVSGGSISSYYWSWIRQPPGKGLELIGYIYYSGSTNYNPSLKSRVTISVDTSKNHFSLKLSSVTAADTAVYYCARSQYTSSWYGSFDIWGQGTMVTVSS
VL: DIQMTQSPSSVSASVGDRVTITCRASQGISTWLAWFQQKPGKAPKLLIYAASTLQGGVPSRFSGSGSGPEFTLTISSLQPEDFATYYCQQANSFPWTFGQGTKVEIK
notes: Human IgG4 Fc (H4H)
Take B15: in assay [1], the “IC50, blocking of IFN-γ release … donor #603486” value amounted to 4.42e-09 M and the “IC50, blocking of IFN-γ release … donor #603487” value is 1.22e-08 M. Besides, the “mAb-2 Binding to the Pre-complex” value in assay [2] was 0.28 nm.

B16: H4H9670P (antibody, V domains shown)
VH: EVQLVESGGGLVQPGGSLRLSCAASGFTLSSYAMSWVRQAPGKGLEWVSAISGSGGSTYYADSVKGRFTISRDNSKNSLYLQLNSLRAEDTAVYYCAKTLYTTSWYGGFQHWGQGTLVTVSS
VL: DIQMTQSPSSVSASIGDRVTITCRASQGISSWLAWYQQKPGKVPKLLIYAASSLQSGFPSRFSGSGSGTDFTLTISSLQPEDFATYYCQQTHSFPWTVGQGTKVEIK
notes: Human IgG4 Fc (H4H)
In the case of B16, the “mAb-2 Binding to the Pre-complex” value in assay [2] stood at 0.23 nm.
